Molecular target: T1, Ebola VP40 (1-326) (Ebola virus (EBOV), UniProt Q05128 1-326)
T1 sequence: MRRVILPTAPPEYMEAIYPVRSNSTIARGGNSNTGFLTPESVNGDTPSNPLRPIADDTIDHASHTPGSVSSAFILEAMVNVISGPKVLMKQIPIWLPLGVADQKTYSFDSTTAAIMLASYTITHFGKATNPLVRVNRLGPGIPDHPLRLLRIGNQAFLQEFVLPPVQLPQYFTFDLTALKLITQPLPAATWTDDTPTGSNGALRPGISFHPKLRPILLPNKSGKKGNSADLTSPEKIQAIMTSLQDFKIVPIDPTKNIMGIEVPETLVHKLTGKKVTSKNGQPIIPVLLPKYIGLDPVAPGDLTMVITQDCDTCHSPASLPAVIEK
Assay: co-immunoprecipitation with anti-Myc antibody from transfected 293T cells

B1: Myc tagged TSG101 truncated at position 140 (other)
chain: MAVSESQLKKMVSKYKYRDLTVRETVNVITLYKDLKPVLDSYVFNDGSSRELMNLTGTIPVPYRGNTYNIPICLWLLDTYPYNPPICFVKPTSSMTIKTGKHVDANGKIYLPYLHEWKHPQSDLLGLIQVMIVVFGDEPP
Question: Does B1 bind?
Answer: no binding

Reference: US20040223972A1 (FUNCTIONAL GENETICS, published 2004)
